Assay results published in EP2336190A2 (Genentech, Inc., dated 2011).
Substitutions are numbered along the chain they refer to. Numbers in names are those of the source.

Tests used:
[1] = biological target: T1, VEGF (human, UniProt P15692-4 27-191, limits assumed); experiment: competitive phage-ELISA, wt = pY0192
T1 construct: also called human VEGF; vascular endothelial growth factor
Target sequence in this assay (P15692 other isoform, or with tags, fused parts or gaps limits assumed): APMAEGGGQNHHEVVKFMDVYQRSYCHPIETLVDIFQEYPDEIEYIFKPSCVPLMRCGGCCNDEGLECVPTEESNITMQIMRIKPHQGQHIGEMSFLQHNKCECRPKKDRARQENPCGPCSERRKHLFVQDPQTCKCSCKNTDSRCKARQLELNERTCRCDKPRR

[2] = biological target: T1, VEGF; experiment: BIAcore-2000 SPR, wt = Y0192
Target sequence in this assay (P15692 other isoform, or with tags, fused parts or gaps limits assumed): as above

[3] = biological target: rhVEGF165 (human, UniProt P15692 27-191); experiment: cell-based or functional assay
[4] = biological target: T1, VEGF; experiment: KDR-IgG competition ELISA, biotinylated VEGF, 10% human serum
[5] = biological target: T2, VEGF121 (human, UniProt P15692 27-147); experiment: BIAcore SPR, VEGF121 immobilised, Fab in solution
T2 construct: mature; also called Purified VEGF121
T2 sequence (looked up): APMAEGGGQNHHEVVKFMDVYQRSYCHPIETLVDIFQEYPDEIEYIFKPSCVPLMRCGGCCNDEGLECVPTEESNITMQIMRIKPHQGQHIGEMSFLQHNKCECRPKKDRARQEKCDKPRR

[6] = biological target: T2, VEGF121; experiment: BIAcore SPR, VEGF121 immobilised

B1: pY0192 VH F110A (Fab, V domains shown)
VH: EVQLVESGGGLVQPGGSLRLSCAASGYTFTNYGINWVRQAPGKGLEWVGWINTYTGEPTYAADFKRRFTFSLDTSKSTAYLQMNSLRAEDTAVYYCAKYPHYYGSSHWYADVWGQGTL
VL: DIQLTQSPSSLSASVGDRVTITCRANEQLSNYLNWYQQKPGKAPKVLIYFTSSLHSGVPSRFSGSGSGTDFTLTISSLQPEDFATYYCQQYSTVPWTFGQGTKVEIKR
IC50 (mut) / IC50 (wt) [1]: 25

B2: Y0313-3 (Fab, V domains shown)
VH: B1 VH with H101Y, A110F
VL: B1 VL
notes: Reversion mutant of Y0238-3; soluble Fab
Kd (wt) / Kd (mut) [2]: 4.5 ratio

B3: Y0238-5 (Fab, V domains shown)
VH: B1 VH with H101Y, Y103I, G104A, S105K, A110F
VL: B1 VL
notes: Library YC-81 (VH3) on the pY0192 template; substitutions deduced against Y0192; soluble Fab
Kd (wt) / Kd (mut) [2]: 3.2 ratio

B4: Y0238-1 (Fab, V domains shown)
VH: B1 VH with H101Y, Y103R, S105T, A110F
VL: B1 VL
notes: as for B3
Kd (wt) / Kd (mut) [2]: 7.3 ratio

B5: Y0244-1 (Fab, V domains shown)
VH: B1 VH with L72V, T74V, A110F
VL: B1 VL
notes: only the randomized region is printed, substitutions deduced against Y0192; soluble Fab from E. coli 34B8
Kd (wt) / Kd (mut) [2]: 3.6 ratio

B6: Y0244-4 (Fab, V domains shown)
VH: B1 VH with L72I, T74K, A110F
VL: B1 VL
notes: substitutions deduced against Y0192; soluble Fab
Kd (wt) / Kd (mut) [2]: 0.9 ratio

B7: Y0238-7 (Fab, V domains shown)
VH: B1 VH with H101Y, Y103W, S105T, A110F
VL: B1 VL
notes: as for B3
Kd (wt) / Kd (mut) [2]: ≥ 7.3 ratio

B8: Y0238-3 (Fab, V domains shown)
VH: B1 VH with H101Y, S105T, A110F
VL: B1 VL
notes: CDRH3 variant (H101Y, S105T) from library YC-81; soluble Fab
Kd (wt) / Kd (mut) [2]: ≥ 14 ratio

B9: Y0313-1 (Fab, V domains shown)
VH: B1 VH with T28D, N31H, I34M, H101Y, S105T, A110F
VL: B1 VL
notes: Combination variant: Y0243-1 plus VH3 H101Y and S105T; soluble Fab
Kd (wt) / Kd (mut) [2]: ≥ 20 ratio | potency in inhibiting VEGF-induced HuVEC DNA synthesis, against the wild-type Fab (Y0192) [3]: 30 fold

B10: Y0238-10 (Fab, V domains shown)
VH: B1 VH with H101Y, Y103R, G104N, S105T, A110F
VL: B1 VL
notes: as for B3
Kd (wt) / Kd (mut) [2]: 4.8 ratio

B11: Y0243-1 (Fab, V domains shown)
VH: B1 VH with T28D, N31H, I34M, A110F
VL: B1 VL
notes: CDRH1 variant (T28D, N31H) from library HL-265; soluble Fab
Kd (wt) / Kd (mut) [2]: 4.1 ratio

B12: muMAb VEGF A.4.6.1 (antibody, V domains shown)
VH: EIQLVQSGPELKQPGETVRISCKASGYTFTNYGMNWVKQAPGKGLKWMGWINTYTGEPTYAADFKRRFTFSLETSASTAYLQISNLKNDDTATYFCAKYPHYYGSSHWYFDVWGAGTTVTVSS
VL: DIQMTQTTSSLSASLGDRVIISCSASQDISNYLNWYQQKPDGTVKVLIYFTSSLHSGVPSRFSGSGSGTDYSLTISNLEPEDIATYYCQQYSTVPWTFGGGTKLEIKR
IgG1/chIgG1 (EC50 ratio) [4]: 0.759

B13: hu2.10 (Fab, V domains shown)
VH: EVQLVESGGGLVQPGGSLRLSCAASGYTFTNYGMNWIRQAPGKGLEWVGWINTYTGEPTYAADFKRRFTISLDTSASTVYLQMNSLRAEDTAVYYCAKYPHYYGSSHWYFDVWGQGTLVTVSS
VL: DIQMTQSPSSLSASVGDRVTITCSASQDISNYLNWYQQKPGKAPKLLIYFTSSLHSGVPSRFSGSGSGTDYTLTISSLQPEDFATYYCQQYSTVPWTFGQGTKVEIK
notes: Phage-selected consensus clone, purified soluble Fab with human constant domains; also called consensus clone hu2.10
KD(A4.6.1)/KD(mut) as headed (values are KD(mut) over KD of the chimera) [5]: 35 ratio

B14: hu2.10V (Fab, V domains shown)
VH: B13 VH
VL: B13 VL with L46V
notes: Soluble Fab with human constant domains; also called hu2.10 with mutation VL Leu->Val
KD(A4.6.1)/KD(mut) as headed (values are KD(mut) over KD of the chimera) [5]: 5.8 ratio | fold improvement in KD over hu2.10 [6]: 6 fold
